This series has as its target PCBP2 recombinant (Origene TP522190) (Mus musculus, UniProt Q61990 1-362). The experiment in a line: pull-down; EMSA: REMSA binding buffer (LightShift kit), 4 ug extract, 0.5 pmol biotin-RNA, 30 min room temperature, native 6% PAGE 0.5x TBE; pull-down: streptavidin beads. Conditions: protein: commercial; label: 5' biotin. (In general: In EMSA bound probe runs differently from free probe, usually more slowly.)

The values below come from publication PMC12221297, “Negative regulation of miRNA sorting into EVs is mediated by the capacity of RBP PCBP2 to impair the SYNCRIP-dependent miRNA loading”.

PCBP2 recombinant (Origene TP522190), sequence (Q61990 whole entry): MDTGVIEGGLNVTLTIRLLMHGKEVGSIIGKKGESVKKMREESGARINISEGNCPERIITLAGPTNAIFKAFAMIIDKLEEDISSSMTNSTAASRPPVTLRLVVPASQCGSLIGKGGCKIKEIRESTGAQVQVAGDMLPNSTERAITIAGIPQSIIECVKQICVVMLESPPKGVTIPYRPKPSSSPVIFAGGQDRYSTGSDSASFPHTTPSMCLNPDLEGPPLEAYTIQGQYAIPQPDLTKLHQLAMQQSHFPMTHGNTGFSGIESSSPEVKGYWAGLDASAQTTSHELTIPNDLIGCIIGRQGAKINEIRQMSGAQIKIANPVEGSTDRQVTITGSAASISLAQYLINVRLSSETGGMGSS

Regarding CUCCUACCUGUUAGCAUUAAC (ssRNA) [miR-155-3p WT (Table 1: miR-155b-3p WT)], the binding result was “binds”.
